Measurements as given in patent publication US20030022260A1.

Molecular target: LexA-DP-1 (pLEX(HIS).DP-1): complete bacterial LexA protein fused to DP-1 from residue 59 to 410 (bacterial; murine) (UniProt Q08639)

Substance: GAD-E2F-5 (pGAD.E2F-5): entire murine E2F-5 as a hybrid with the activation domain of the yeast GAL4 protein (768-881) (from UniProt P04386)
- transcriptional activity of the E2F site reporter p4x WT CYC1 in yeast: > 6 fold
